The text below walks through data of US20180355061A1 (Janssen / Centocor, published 2018).

As a reminder, the Kd is a measure of binding affinity in units of concentration. Low values mean higher affinity, high ones lower affinity. Broadly, the koff is the first-order rate constant of dissociation. Broadly, the kon is a measure of how fast the partners come together. Low values mean slower complex formation, high ones faster complex formation. What is called % inhibition is the drop in the measured response relative to a control, in per cent. Read a low % inhibition as a weak effect.

Assay [1] addresses T1, human PD-1 expressed on cells (human, UniProt Q15116 25-288). Kind of assay: cell-based or functional assay.
Assay [2] concerns the target T2, human PD-1 (soluble analyte in SPR) (human, UniProt Q15116 25-170, limits assumed).
T2 construct: also called CD279; PDCD1
Kind of assay: SPR (ProteOn XPR36), mAb captured on anti-human IgG Fc, PD-1 as analyte, 25 C. How it is done:
(§1) Affinity measurements were performed using a ProteOn XPR36 system (BioRad). […] Approximately 5000 RU (response units) of mAbs were immobilized. The kinetic experiments were performed at 25° C. in running buffer (DPBS+0.01% P20+100 μg/mL BSA). To perform kinetic experiments, 200 RU of mAbs were captured followed by injections of analytes (human and cyno PD-1) at concentrations ranging from 1.563 nM to 400 nM (in a […] serial dilution). The association phase was monitored for 3 minutes at 50 μL/min, then followed by 10 or 15 minutes of buffer flow (dissociation phase). The chip surface was regenerated with two 18 second pulses of 100 mM H₃PO₄ (Sigma, Cat #7961) at 100 μL/min.
(§2) The collected data were processed using ProteOn Manager software. First, the data was corrected for background using inter-spots. Then, double reference subtraction of the data was performed by using the buffer injection for analyte injections. The kinetic analysis of the data was performed using a Langmuir 1:1 binding model. The result for each mAb was reported in the format of ka (On-rate), kd (Off-rate) and KD (equilibrium dissociation constant).
Affinity of the parental and humanized antibodies to PD-1 was measured using SPR as described in Example 1.

Assay [3] deals with T1, human PD-1 expressed on cells. Description: cell-based or functional assay. The source holds these as a separate data set.
In assay [4] the target is T3, biotinylated Human PD-1/PDCD1 (Acro Biosystems. Cat #PD1-H82E4) (human, UniProt Q15116 25-167, biotinylated).
T3 construct: Bought reagent, construct not described
Description: Fab ELISA: Fab captured by anti-Fd(CH1), biotinylated human PD-1 at 5 nM, streptavidin-HRP chemiluminescence; reference parental PD1B878 Fab. On the procedure:
For follow-up screening, plasmid DNA was prepared from overnight culture of the TG-1 Escherichia coli cells and the pIX gene was excised by NheI/SpeI digestion. After ligation, the DNA was transformed into TG-1 cells and grown on LB/Agar plates overnight. The next day, colonies were picked, grown overnight, and the cultures used for (i) colony sequencing of the V-regions, and (ii) induction of Fab production. For Fab production, the overnight culture was diluted 100 folds in new media and grown for 5-6 hours at 37° C. Fab production was induced by the addition of fresh media containing IPTG and the cultures were grown overnight at 30° C. The following day, the cultures were spun down and the supernatants, containing the soluble Fab proteins, were used for Fab ELISA. For the ELISA, the soluble Fab proteins were captured onto plates by a polyclonal anti-Fd(CH1) antibody. After washing and blocking, biotinylated Human PD-1/PDCD1 was added at 5 nM concentration. This concentration enabled ranking of the Fab variants, defined as fold change versus the parent, in which the parental Fab, present as a control in all plates, is defined as 100% binding. The biotinylated human PD-1 was detected by HRP-conjugated streptavidin with chemiluminescence measured in a plate reader.
(ELISA stands for enzyme-linked immunosorbent assay.)

For assay [5], the target named is T2, human PD-1 (soluble analyte in SPR). Description: SPR (ProteOn XPR36), mAb captured on anti-human IgG Fc, human PD-1 as analyte, 25 C. How it is done:
as §1, §2
(§3) Affinity of the antibodies to human and cyno PD-1 was measured using SPR as described in Example 1.

Assay [6] deals with T4, cyno PD-1 (soluble analyte in SPR) (cyno).
T4 construct: also called cynomolgus PD-1
Kind of assay: SPR (ProteOn XPR36), mAb captured on anti-human IgG Fc, cyno PD-1 as analyte, 25 C. On the procedure: as §1, §2, §3

Assay [7] concerns the target T2, human PD-1 (soluble analyte in SPR). Kind of assay: SPR (ProteOn XPR36), mAb from crude supernatant captured on anti-human IgG Fc, PD-1 as analyte, 25 C.

Substitutions are numbered along the chain they refer to. Names and notes keep the numbering of the source.

T2 sequence (Q15116 25-170 limits assumed): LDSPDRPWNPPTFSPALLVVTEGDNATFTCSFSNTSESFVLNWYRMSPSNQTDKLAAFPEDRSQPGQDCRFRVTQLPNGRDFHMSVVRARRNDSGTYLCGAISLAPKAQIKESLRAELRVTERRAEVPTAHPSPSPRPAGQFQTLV
T1 sequence (Q15116 25-288 limits assumed): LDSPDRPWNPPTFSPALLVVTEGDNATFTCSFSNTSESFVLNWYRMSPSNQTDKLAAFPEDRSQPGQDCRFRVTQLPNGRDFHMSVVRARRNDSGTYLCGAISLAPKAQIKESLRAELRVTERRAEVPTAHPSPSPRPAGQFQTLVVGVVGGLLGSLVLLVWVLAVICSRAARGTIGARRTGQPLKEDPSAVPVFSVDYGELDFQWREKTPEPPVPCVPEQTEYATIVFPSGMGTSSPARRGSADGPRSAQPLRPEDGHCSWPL
T3 sequence (Q15116 25-167 limits assumed): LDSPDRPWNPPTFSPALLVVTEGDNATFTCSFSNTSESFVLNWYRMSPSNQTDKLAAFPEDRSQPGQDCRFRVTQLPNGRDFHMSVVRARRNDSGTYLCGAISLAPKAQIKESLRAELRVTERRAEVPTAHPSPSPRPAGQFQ

B1: PD1B743 (antibody, human IgG1, kappa, V domains shown)
VH: QVQLVQSGSELKKPGASVKVSCKASGYTFTDYSMHWVRQAPGQGLEWMGWINIETGEPTYAQGFTGRFVFSLDTSVSTAYLQICSLKAEDTAVYFCARDYYGTYFYAMDYWGQGTLVTVSS
VL: EIVLTQSPATLSLSPGERATLSCTASSSVSSSYLHWYQQKPGLAPRLLIYSTSNLASGIPDRFSGSGSGTDYTLTISRLEPEDFAVYYCHQYHRSPLTFGQGTKLEIKR
notes: Humanized PD1B505, IgG1; also called VH PD1H384; VL PD1L469
For the molecule B1, the “mean % inhibition of T cell proliferation, CMV-PBMC assay (FIG. 5B)” value in assay [1] amounted to 58%. Further, in assay [2], the Kd is 32.8 nM, the koff came out at 0.003 s⁻¹ and the kon is 91500 M⁻¹ s⁻¹. Further, in assay [3], the “% inhibition at 10 ug/ml mAb, CMV-PBMC assay, donor D4” value stood at 30.5% and the “% inhibition at 10 ug/ml mAb, CMV-PBMC assay, donor D5” value worked out at 64%.

B2: Fab variant of PD1B878 with VH PD1H585 (E57Y) (Fab, V domains shown)
VH: B1 VH with E57Y, C84S
VL: EIVLTQSPATLSLSPGERATLSCTASSSVSSSYLHWYQQKPGLAPRLLIYSTSNLASGIPDRFSGSGSGTDYTLTISRLEPEDFAVYYCHQYHRSPLTFGQGTKLEIK
notes: Soluble Fab in E. coli supernatant; pairing with the parental VL inferred from the non-combinatorial library design
Consider B2, for which, in assay [4], the “fold binding relative to parental Fab” value is no less than 10 fold.

B3: PD1B1095 (antibody, human IgG1, kappa, V domains shown)
VH: B1 VH with E57W, C84S
VL: B1 VL with S30P
notes: also called VH PD1H587; VL PD1L652
In the case of B3, in assay [5], binding was characterised by a dissociation constant (Kd) of 0.471 nM, the koff worked out at 7.12e-05 s⁻¹ and the kon was 151000 M⁻¹ s⁻¹. For the same molecule, in assay [6], the Kd was 4.23 nM, the koff was 0.000781 s⁻¹ and the kon is 185000 M⁻¹ s⁻¹.

B4: Fab variant of PD1B878 with VL PD1L652 (S30P) (Fab, V domains shown)
VH: B1 VH with C84S
VL: B2 VL with S30P
notes: Soluble Fab in E. coli supernatant; pairing with the parental VH inferred
On to B4, for which the “fold binding relative to parental Fab” value in assay [4] was no less than 10 fold.

B5: Fab variant of PD1B878 with VH PD1H586 (E57H) (Fab, V domains shown)
VH: B1 VH with E57H, C84S
VL: B2 VL
notes: Soluble Fab in E. coli supernatant; pairing with the parental VL inferred
As to B5, the “fold binding relative to parental Fab” value in assay [4] was no less than 10 fold.

B6: Fab variant of PD1B878 with VL PD1L651 (V29F) (Fab, V domains shown)
VH: B1 VH with C84S
VL: B2 VL with V29F
notes: as for B4
On to B6, for which the “fold binding relative to parental Fab” value in assay [4] is no less than 10 fold.

B7: PD1B1093 (antibody, human IgG1, kappa, V domains shown)
VH: B1 VH with E57Y, C84S
VL: B1 VL with S30P
notes: also called VH PD1H585; VL PD1L652
Take B7: in assay [5], binding was put at a Kd of 0.349 nM, the koff turned out to be 4.36e-05 s⁻¹ and the kon amounted to 125000 M⁻¹ s⁻¹. In addition, in assay [6], the Kd was determined as 2.18 nM, the koff was 0.000368 s⁻¹ and the kon turned out to be 169000 M⁻¹ s⁻¹.

B8: Fab variant of PD1B878 with VH PD1H587 (E57W) (Fab, V domains shown)
VH: B1 VH with E57W, C84S
VL: B2 VL
notes: as for B5
B8: the “fold binding relative to parental Fab” value in assay [4] is no less than 10 fold.

B9: PD1B845 (antibody, human IgG1, kappa, V domains shown)
VH: QVQLVQSGAEVKKPGASVKVSCKASGYTFTTYWMHWVRQAPGQGLEWMGEINPNNAGINYAQKFQGRVTLTVDKSISTAYMELSRLRSDDTAVYYCTIDYYDYGGYWGQGTLVTVSS
VL: DIQMTQSPSSLSASVGDRVTITCKASQNVGTNVAWYQQKPEKAPKSLIYSASYRYSGVPSRFSGSGSGTDFTLTISSLQPEDFATYYCQQYNIYPYTFGQGTKLEIKR
notes: G56A variant of PD1B750, IgG1; tested as crude supernatant in SPR; also called VH PD1H399; VL PD1L470
In assay [7], B9 yielded a Kd of 24 nM, a koff of 0.00843 s⁻¹ and a kon of 351000 M⁻¹ s⁻¹.

B10: PD1B847 (antibody, human IgG1, kappa, V domains shown)
VH: B9 VH with N55Q, A56G
VL: B9 VL
notes: N55Q variant of PD1B750, IgG1; tested as crude supernatant in SPR; also called VH PD1H401; VL PD1L470
In assay [7], B10 gave a Kd of 24.6 nM, a koff of 0.00744 s⁻¹ and an on-rate (kon) of 303000 M⁻¹ s⁻¹.

B11: PD1B846 (antibody, human IgG1, kappa, V domains shown)
VH: B9 VH with N55D
VL: B9 VL
notes: N55D, G56A variant of PD1B750, IgG1; tested as crude supernatant in SPR; also called VH PD1H400; VL PD1L470
Take B11: in assay [7], binding was put at a Kd of 21.6 nM, the koff was 0.00753 s⁻¹ and the kon came to 349000 M⁻¹ s⁻¹.

B12: PD1B850 (antibody, human IgG1, kappa, V domains shown)
VH: B9 VH with A56I
VL: B9 VL
notes: G56I variant of PD1B750, IgG1; tested as crude supernatant in SPR; also called VH PD1H404; VL PD1L470
In assay [7], B12 returned a dissociation constant (Kd) of 23 nM, a koff of 0.00719 s⁻¹ and a kon of 313000 M⁻¹ s⁻¹.

B13: PD1B848 (antibody, human IgG1, kappa, V domains shown)
VH: B9 VH with N55K, A56G
VL: B9 VL
notes: N55K variant of PD1B750, IgG1; tested as crude supernatant in SPR; also called VH PD1H402; VL PD1L470
As for B13, in assay [7], the Kd came out at 39.2 nM, the koff worked out at 0.00991 s⁻¹ and the kon came to 253000 M⁻¹ s⁻¹.

B14: PD1B849 (antibody, human IgG1, kappa, V domains shown)
VH: B9 VH with N55E, A56G
VL: B9 VL
notes: N55E variant of PD1B750, IgG1; also called VH PD1H403; VL PD1L470
For the molecule B14, in assay [2], the Kd turned out to be 47.1 nM, the koff was 0.00883 s⁻¹ and the on-rate (kon) came out at 188000 M⁻¹ s⁻¹.

B15: PD1B506 (antibody, human IgG1, kappa, V domains shown)
VH: QVQLQQPGAELVKPGASVKLSCKASGYTFTTYWMHWVKQRPGQGLEWIGEINPNNGGINYNEKFKKKATLTVDKSSSTAYMQLSSLTSEDSAVYYCTIDYYDYGGYWGQGTTLTVSS
VL: DIVMTQSQKFMSTSVRDRVSVTCKASQNVGTNVAWYQQKPGQSPKALIYSASYRYSGVPDRFTGSGSGTDFTLTITNVQSEDLAEYFCQQYNIYPYTFGSGTKLEMKR
notes: Parental mouse antibody cloned as chimeric human IgG1; Bin 5; also called VH PD1H90; VL PD1L28
B15: in assay [2], the Kd is 52.4 nM, the koff is 0.0102 s⁻¹ and the kon came out at 195000 M⁻¹ s⁻¹.

B16: PD1B756 (antibody, human IgG1, kappa, V domains shown)
VH: QITLKESGPTLVKPTQTLTLTCTFSGFSLSTSGMGVSWIRQPPGKALEWLAHIYWDDDKRYSPSLKSRLTITKDTSKNQVVLTMTNMDPVDTGTYYCVRKGYYDYGYVMDYWGQGTLVTVSS
VL: DIVMTQSPLSLPVTPGEPASISCRSSKSLLHSNGITYLNWYLQKPGQSPQLLIYQMSNLASGVPDRFSGSGSGTDFTLKISRVEAEDVGVYYCAQNLELPLTFGGGTKVEIKR
notes: Humanized PD1B512, IgG1; also called VH PD1H389; VL PD1L472
As for B16, the “mean % inhibition of T cell proliferation, CMV-PBMC assay (FIG. 5B)” value in assay [1] was determined as 36.7%. Besides, in assay [2], the Kd came to 18.1 nM, the off-rate (koff) is 0.00214 s⁻¹ and the kon turned out to be 118000 M⁻¹ s⁻¹. Moreover, in assay [3], the “% inhibition at 10 ug/ml mAb, CMV-PBMC assay, donor D3” value turned out to be 27.4%; the “% inhibition at 10 ug/ml mAb, CMV-PBMC assay, donor D4” value came out at 0.3%; the “% inhibition at 10 ug/ml mAb, CMV-PBMC assay, donor D5” value was found to be 69.3%.

B17: PD1B505 (antibody, human IgG1, kappa, V domains shown)
VH: DVQLQESGPELKKPGETVKISCKASGYTFTDYSMHWVKQAPGKGLKWMGWINIETGEPTYADDFKGRFAFSLETSASTAYLQINNLKNEDTATYFCARDYYGTYFYAMDYWGQGTTLTVSS
VL: QIVLTQSPAIMSASLGERVTMTCTASSSVSSSYLHWYQQKPGSSPKLWIYSTSNLASGVPARFSGSGSGTSYSLTISSMEAEDAATYYCHQYHRSPLTFGAGTKLELKR
notes: Parental mouse antibody cloned as chimeric human IgG1; Bin 1; also called VH PD1H93; VL PD1L30
In assay [2], B17 showed a dissociation constant Kd of 29.1 nM, a koff of 0.00236 s⁻¹ and a kon of 81100 M⁻¹ s⁻¹.
